Test results taken from PMC4496268.

Molecular target: syntaxin-1, endogenous in cultured mouse neurons (mouse (endogenous in cultured neurons of Syt1 KO mice)) (UniProt O35526)
Assay: co-IP

Sequence of UniProt O35526 (O35526 whole entry): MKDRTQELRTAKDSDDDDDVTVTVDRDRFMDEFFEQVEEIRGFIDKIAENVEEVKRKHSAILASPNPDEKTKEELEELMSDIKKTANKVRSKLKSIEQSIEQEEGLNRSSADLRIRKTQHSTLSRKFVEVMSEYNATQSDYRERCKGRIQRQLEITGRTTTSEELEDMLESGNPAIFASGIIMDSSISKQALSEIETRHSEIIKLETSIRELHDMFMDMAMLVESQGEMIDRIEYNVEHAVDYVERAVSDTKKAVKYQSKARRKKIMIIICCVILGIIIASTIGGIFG

Synaptotagmin-1 R322E K325E mutant, expressed in Syt1 KO neurons (from UniProt P21707 1-421) (natural protein)
decrease of co-immunoprecipitated Syt1 against WT Syt1: 62%
